# Experimental data as given in IntAct's records for PubMed 15173383.
# B1: DNA polymerase delta catalytic subunit (Schizosaccharomyces pombe (strain ATCC 38366 / 972)), P30316 (parent)
# chain: MTDRSSNEGVVLNKENYPFPRRNGSIHGEITDVKRRRLSERNGYGDKKGSSSKEKTSSFEDELAEYASQLDQDEIKSSKDQQWQRPALPAINPEKDDIYFQQIDSEEFTEGSVPSIRLFGVTDNGNSILVHVVGFLPYFYVKAPVGFRPEMLERFTQDLDATCNGGVIDHCIIEMKENLYGFQGNEKSPFIKIFTTNPRILSRARNVFERGEFNFEELFPVGVGVTTFESNTQYLLRFMIDCDVVGMNWIHLPASKYQFRYQNRVSNCQIEAWINYKDLISLPAEGQWSKMAPLRIMSFDIECAGRKGVFPDPSIDPVIQIASIVTQYGDSTPFVRNVFCVDTCSQIVGTQVYEFQNQAEMLSSWSKFVRDVDPDVLIGYNICNFDIPYLLDRAKSLRIHNFPLLGRIHNFFSVAKETTFSSKAYGTRESKTTSIPGRLQLDMLQVMQRDFKLRSYSLNAVCSQFLGEQKEDVHYSIITDLQNGTADSRRRLAIYCLKDAYLPQRLMDKLMCFVNYTEMARVTGVPFNFLLARGQQIKVISQLFRKALQHDLVVPNIRVNGTDEQYEGATVIEPIKGYYDTPIATLDFSSLYPSIMQAHNLCYTTLLDSNTAELLKLKQDVDYSVTPNGDYFVKPHVRKGLLPIILADLLNARKKAKADLKKETDPFKKAVLDGRQLALKVSANSVYGFTGATNGRLPCLAISSSVTSYGRQMIEKTKDVVEKRYRIENGYSHDAVVIYGDTDSVMVKFGVKTLPEAMKLGEEAANYVSDQFPNPIKLEFEKVYFPYLLISKKRYAGLFWTRTDTYDKMDSKGIETVRRDNCPLVSYVIDTALRKMLIDQDVEGAQLFTKKVISDLLQNKIDMSQLVITKALSKTDYAAKMAHVELAERMRKRDAGSAPAIGDRVAYVIIKGAQGDQFYMRSEDPIYVLENNIPIDAKYYLENQLSKPLLRIFEPILGEKASSLLHGDHTRTISMAAPSVGGIMKFAVKVETCLGCKAPIKKGKTALCENCLNRSAELYQRQVAQVNDLEVRFARLWTQCQRCQGSMHQDVICTSRDCPIFYMRIAEHKKLQQSVDLLKRFDEMSW
# partner: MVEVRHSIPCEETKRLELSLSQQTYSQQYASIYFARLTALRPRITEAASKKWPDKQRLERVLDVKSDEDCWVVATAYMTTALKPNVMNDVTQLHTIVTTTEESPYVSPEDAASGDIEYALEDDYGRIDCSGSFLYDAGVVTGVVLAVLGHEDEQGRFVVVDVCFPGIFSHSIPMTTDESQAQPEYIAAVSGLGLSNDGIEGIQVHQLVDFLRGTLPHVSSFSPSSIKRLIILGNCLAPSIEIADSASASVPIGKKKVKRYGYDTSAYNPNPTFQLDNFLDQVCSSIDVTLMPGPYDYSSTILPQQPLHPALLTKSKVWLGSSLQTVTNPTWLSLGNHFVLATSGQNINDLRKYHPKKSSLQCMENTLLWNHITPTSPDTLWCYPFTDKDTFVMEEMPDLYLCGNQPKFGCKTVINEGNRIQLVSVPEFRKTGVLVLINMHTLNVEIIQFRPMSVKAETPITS
# B2: DNA polymerase delta catalytic subunit (Saccharomyces cerevisiae), P15436 (parent)
# chain: MSEKRSLPMVDVKIDDEDTPQLEKKIKRQSIDHGVGSEPVSTIEIIPSDSFRKYNSQGFKAKDTDLMGTQLESTFEQELSQMEHDMADQEEHDLSSFERKKLPTDFDPSLYDISFQQIDAEQSVLNGIKDENTSTVVRFFGVTSEGHSVLCNVTGFKNYLYVPAPNSSDANDQEQINKFVHYLNETFDHAIDSIEVVSKQSIWGYSGDTKLPFWKIYVTYPHMVNKLRTAFERGHLSFNSWFSNGTTTYDNIAYTLRLMVDCGIVGMSWITLPKGKYSMIEPNNRVSSCQLEVSINYRNLIAHPAEGDWSHTAPLRIMSFDIECAGRIGVFPEPEYDPVIQIANVVSIAGAKKPFIRNVFTLNTCSPITGSMIFSHATEEEMLSNWRNFIIKVDPDVIIGYNTTNFDIPYLLNRAKALKVNDFPYFGRLKTVKQEIKESVFSSKAYGTRETKNVNIDGRLQLDLLQFIQREYKLRSYTLNAVSAHFLGEQKEDVHYSIISDLQNGDSETRRRLAVYCLKDAYLPLRLMEKLMALVNYTEMARVTGVPFSYLLARGQQIKVVSQLFRKCLEIDTVIPNMQSQASDDQYEGATVIEPIRGYYDVPIATLDFNSLYPSIMMAHNLCYTTLCNKATVERLNLKIDEDYVITPNGDYFVTTKRRRGILPIILDELISARKRAKKDLRDEKDPFKRDVLNGRQLALKISANSVYGFTGATVGKLPCLAISSSVTAYGRTMILKTKTAVQEKYCIKNGYKHDAVVVYGDTDSVMVKFGTTDLKEAMDLGTEAAKYVSTLFKHPINLEFEKAYFPYLLINKKRYAGLFWTNPDKFDKLDQKGLASVRRDSCSLVSIVMNKVLKKILIERNVDGALAFVRETINDILHNRVDISKLIISKTLAPNYTNPQPHAVLAERMKRREGVGPNVGDRVDYVIIGGNDKLYNRAEDPLFVLENNIQVDSRYYLTNQLQNPIISIVAPIIGDKQANGMFVVKSIKINTGSQKGGLMSFIKKVEACKSCKGPLRKGEGPLCSNCLARSGELYIKALYDVRDLEEKYSRLWTQCQRCAGNLHSEVLCSNKNCDIFYMRVKVKKELQEKVEQLSKW
# partner: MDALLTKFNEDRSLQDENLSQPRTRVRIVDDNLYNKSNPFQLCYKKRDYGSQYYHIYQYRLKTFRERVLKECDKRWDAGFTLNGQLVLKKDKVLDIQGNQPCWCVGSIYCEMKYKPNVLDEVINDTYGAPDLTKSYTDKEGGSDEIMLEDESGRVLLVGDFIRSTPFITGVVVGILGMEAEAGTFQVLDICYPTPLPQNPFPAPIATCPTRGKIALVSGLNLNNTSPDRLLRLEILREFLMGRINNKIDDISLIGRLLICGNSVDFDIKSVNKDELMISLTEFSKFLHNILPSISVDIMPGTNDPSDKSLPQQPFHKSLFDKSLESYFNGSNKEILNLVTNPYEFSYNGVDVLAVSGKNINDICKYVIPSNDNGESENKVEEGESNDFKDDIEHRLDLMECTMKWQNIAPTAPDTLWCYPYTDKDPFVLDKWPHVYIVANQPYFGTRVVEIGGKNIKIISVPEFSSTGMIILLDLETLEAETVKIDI
# B3: DNA polymerase delta small subunit (Saccharomyces cerevisiae), P46957 (parent)
# chain: B2 partner
# partner: B2 chain
# Variants of: B1
# Details: with dpod2_schpo cdc1, P87324
row,Variant,effect of a mutation on the interaction
1,C1053A,decreasing interaction
2,C1040A,decreasing interaction
3,C1043A,decreasing interaction
4,C1058A,decreasing interaction
5,C1058S,decreasing interaction

# Variants of: B2
# Details: with dpod2_yeast POL31, P46957
row,Variant,effect of a mutation on the interaction
1,Q1057A,decreasing interaction
2,R1058A,decreasing interaction
3,C1056A,decreasing interaction
4,E1047A,decreasing interaction

# Next, values leading:
row,effect of a mutation on the interaction,Variant
1,decreasing interaction,H1064A
2,decreasing interaction,C1069A
3,decreasing interaction,C1059A
4,decreasing interaction,C1074A

# Variants of: B3
# Details: with dpod_yeast POL3, P15436
row,Variant,effect of a mutation on the interaction
1,MDALLTKFNEDRSLQDENLSQPRTRVRIVDDNLYNKSNPFQLCYKKRDYGSQYYHIYQYRLKTFRERVLKECDKRWDAGFTLNGQLVLKKDKVLDIQGNQPCWCVGSIYCEMKYKPNVLDEVINDTYGAPDLTKSYTDKEGGSDEIMLEDESGRVLLVGDFIRSTPFITGVVVGILGMEAEAGTFQVLDICYPTPLPQNPFPAPIATCPTRGKIALVSGLNLNNTSPDRLLRLEILREFLMGRINNKIDDISLIGRLLICGNSVDFDIKSVNKDELMISLTEFSKFLHNILPSISVDIMPGTNDPSDKSLPQQPFHKSLFDKSLESYFNGSNKEILNLVTNPYEFSYNGVDVLAVSGENINDICKYVIPSNDNGESENKVEEGESNDFKDDIEHRLDLMECTMKWQNIAPTAPDTLWCYPYTDKDPFVLDKWPHVYIVANQPYFGTRVVEIGGKNIKIISVPEFSSTGMIILLDLETLEAETVKIDI [K358E],increasing interaction
